Test results: patent US20240124568A1, “CHEMERIN INHIBITORS AND USES THEREOF FOR TREATING KIDNEY CANCER” (University of Miami, priority 2022, published 2024)
Entries after “also recorded” stand apart in the source; their conditions may differ.

What was measured:
[1] = system: chemerin-knockdown 786-O cells; test: Cell proliferation assay, rescue in chemerin-knockdown 786-O cells; format: cell-based, human
Procedure: Cell Proliferation Assay. Cells were plated at a density of 100,000 cells in triplicate wells of a 6-well plate, supplemented with DMEM containing 10% FBS. Cells were trypsinized and were counted using the Cell Counter Countess II (Life Technologies) at days 3, 6, 9 and 12.

786-O and 769-P cells = test: EdU incorporation assay (DNA synthesis); format: cell-based, human; details: chemerin-knockdown 786-O cells, etomoxir 50 μM and 100 μM, EdU flow cytometry
Procedure: EdU incorporation assay. […] After incubation, the cells were fixed with 3.7% formaldehyde/PBS for 15 minutes at room temperature and washed with 1 mL of 3% BSA/PBS twice. 1 mL of 0.5% TritonX-100 in PBS was added for 20 minutes at room temperature to permeabilize the cells. Next, cells were incubated with 0.5 mL of Click-iT reaction cocktail (Invitrogen, Cat #C10337) prepared according to manufacturer's instructions, at room temperature for 30 minutes and away from direct light. DAPI (Millipore, Cat #268298) was added later for DNA staining. […]

HIF2α mRNA in 786-O = test: qRT-PCR of HIF1α and HIF2α after fatty acid incubation; format: cell-based, human; details: 500 μM fatty acid for 24 hours
Procedure: RNA Isolation and Real Time Quantitative Polymerase Chain Reaction (qRT-PCR). Total RNA was extracted using TRIzol reagent (Invitrogen, Cat #15596018). The concentration and quality of RNA were determined using a NanoDrop 1000 spectrophotometer (Thermo). 500 ng of RNA was used to synthesize cDNA using the Quantabio qScript cDNA SuperMix (Quantabio, Cat #95048-100) according to the manufacturer's recommendations. The cDNA was diluted by 10-fold before used for qRT-PCR gene expression analysis. qRT-PCR was performed using Power SYBR Green PCR Master Mix (Applied Biosystems, Cat #4367659) and SYBR Green primers (Table 3). The Ct values of the gene of interest was normalized to the Ct value of the housekeeping control, β-actin. The fold change was then calculated using the 2^−ΔΔCt method. Sodium palmitate preparation and supplementation. To prepare BSA-palmitate conjugate, sodium palmitate (Thermo, Cat #P0500) was added to a NaCl solution and heated in a water bath while stirring. The hot palmitate solution was mixed with BSA solution, 5 mL at a time. The final volume was adjusted with 150 mM NaCl for 1 mM palmitate solution and pH was adjusted to 7.4. Sodium palmitate solution was added to cell at final concentration 500 μM and incubated for 24 hours.

[2] = system: HIF2α and chemerin protein in 786-O and 769-P cells; test: Immunoblots of lysates after fatty acid treatment; format: cell-based, human; details: 500 μM fatty acid
Procedure: Protein Extraction and Western blotting. The cells were washed with 1× ice-cold PBS (GE, Cat #SH30256.01) once before they were lysed in RIPA lysis buffer (50 mM Tris-HCl, pH 7.5; 150 mM NaCl; 0.5% NP-40; 50 mM NaF) and scraped from the plate on ice. The RIPA lysis buffer contained 1:1000 1× protease inhibitor cocktail (Sigma-Aldrich) and 1:100 1× phosphatase inhibitor (Sigma-Aldrich). The lysates were passed through a 16G needle 15 times before they were centrifuged at 4° C. for 20 minutes at 20,000×g. The protein lysates were quantified using the Pierce BCA Protein Assay Kit (Thermo) according to the manufacturer's protocols and absorbance was measured using GloMax Discover Microplate Reader (Promega). Between 50 and 100 μg of protein samples were mixed with 5×SDS Laemmli loading buffer and boiled at 95° C. for 5 minutes. Proteins were separated using 4-20% SDS-PAGE gels (Bio-Rad) and transferred onto PVDF membrane (Millipore). The membrane was blocked with TBS-T supplemented with 5% non-fat dry milk primary antibody for 45 minutes at room temperature rocking before blotting with primary antibodies at 4° C. overnight. The membrane was washed in TB S-T 3 times with 5 minutes each and blotted in secondary antibodies at room temperature for 2 hours. An Azure 300 chemiluminescent western blot imaging system (Azure biosystems) was used to visualize the membrane. […]

786-O cells [3] = test: BODIPY 493/503 lipid droplet imaging; format: cell-based, human; details: chemerin-silenced 786-O cells; 50 nM recombinant chemerin protein for 18 hours
Procedure: BODIPY Lipid Droplet Imaging. Cells were plated on round glass coverslips of 12-well plates and incubated with 1 mL of DMEM supplemented with 10% FBS. The medium was removed and cells were washed with room temperature PBS, fixed with 4% formaldehyde for 30 minutes and incubated with 300 μL of 1 uM BODIPY 493/503 (Life Technologies, Cat #D3922) for 15 minutes, protected from direct light. 1 μg/mL of DAPI (Millipore) was added for nucleus staining. The z stack images were acquired using Olympus FV1000 confocal scanning microscope and analyzed using Fiji software (ImageJ).

786-O cells [4] = test: Cell viability assay (MTT) after monoclonal antibody treatment, 786-O; format: cell-based, human; details: increasing concentrations of mAb, 2, 4 and 6 days
Procedure: Cell Viability Assay. After treatment with monoclonal antibodies, 786-O cells were incubated with 3-(4,5-dimethylthiazol-2-yl)-2,5-diphenylterazolium bromide (MTT, Sigma-Aldrich) to assess cell survival. Briefly, the cells were plated at density of 1000 cells/plate in 96-well plates and treated with different concentrations of monoclonal antibodies (IgG or anti-RARRES2) for indicated incubation times (2 days, 4 days and 6 days). MTT solution was diluted 5-fold in DMEM media and incubated in 37° C. incubator for 4 hours. The media was carefully removed and the precipitate was dissolved in DMSO. The solution later immediately quantified at 450 nm using the GloMax Discover Microplate Reader (Promega).

HK-2 cells = test: Cell viability assay (MTT) after monoclonal antibody treatment, HK-2; format: cell-based, human; details: similar dose range of the antibody
786-O cells [5] = test: Oil Red O (ORO) lipid droplet staining of cells; format: cell-based, human; details: compared to treatment with IgG
Procedure: Oil Red O (ORO) Lipid Droplet Staining. For tissue sections staining, the tissues were cryoprotected by incubating in 30% sucrose/PBS solution. After the tissues sank to the bottom of the vial, the tissues were embedded in OCT (Fisher Healthcare). Embedded tissue blocks were sectioned at 10 μm thickness and stored at −80° C. until ready for staining. Before ORO staining, the frozen sections were air dried and fixed in 10% neutral buffered formalin (Sigma-Aldrich, Cat #HT501128). After fixing in 100% propylene glycol (VWR, Cat #0575) twice, sections were stained with freshly made ORO solution (Sigma-Aldrich, Cat #00625) followed by staining for hematoxylin. Then, the slides were washed with distilled water and mounted using glycerin jelly (Sigma-Aldrich). The sections were visualized using a VS120 Virtual Slide Microscope scanner (Olympus). For cell staining, the cells plated in 12-well plates in triplicate were rinsed with PBS twice, and fixed with 10% formaldehyde for 1 hour. […] After the cells were air dried, 250 μL of isopropanol was added to the wells and the eluted solution was measured at 510 nm. Next, the cells were stained with sulforhodamine B as previously described, and measured at 564 nm using GloMax Discover Microplate Reader (Promega), as previously described.

786-O cells [6] = test: Lipid reactive oxygen species, BODIPY 581/591 C11; format: cell-based, human; details: compared to treatment with IgG
Procedure: Lipid Reactive Oxygen Species. The cells were plated at 50,000 cells per well in 24-well plate. 10 uM BODIPY-581/591 C11 (Invitrogen, Cat #D3861) and 1 ug/mL DAPI (Millipore) were added to the media and incubated for 1 hour at 37° C., 5% CO2. Cells were imaged using Olympus FV1000 confocal scanning microscope and analyzed using Fiji software (ImageJ). 9 randomly selected images per condition were selected for analysis.

786-O orthotopic tumors = test: Orthotopic 786-O tumor growth under left kidney capsule of nude mice (bioluminescence imaging); format: in vivo; details: for in vivo 786-O tumor growth (bioluminescence imaging): 20 mg/kg twice weekly versus IgG control mAb, n=6 each arm; for animal weight / toxicity: nude mice with orthotopic 786-O, 20 mg/kg twice weekly, weight recorded weekly
Source text: Animal Studies. All animal experiments were in compliance with National Institutes of Health guidelines and were approved by the Institutional Animal Care and Use Committee (IACUC) of the University of Miami Miller School of Medicine. Six-week-old female athymic nude mice (Charles River Laboratories) were used for xenograft studies. Mice were housed (3-5 mice per cage) on a 12-hour light/dark cycle in individually ventilated cages, and with ad libitum access to food and water. The experimental holding room had temperature (21.5° C. set point) and humidity control (40% set point), and it was equipped with HEPA-filtered air. For subcutaneous tumor growth model, cells were pelleted and resuspended in a PBS/Matrigel Matrix (Corning, Cat #356234) mix at 1:1 ratio. 2×10^6 cells in a 100 μL solution were injected subcutaneously into each flank. Once palpable tumors were established, digital calipers were used to measure tumor size twice weekly. Tumor volume was calculated using the equation V=½ (length×width^2). For orthotopic tumor growth assays, soft collagen pellets containing 1×10^6 cells were implanted orthotopically under the capsules of the left kidney. Tumors were palpated and monitored twice weekly using IVIS bioluminescence imaging (Perkin Elmer). At the end of the experiments, blood was collected and both kidneys were harvested.

[7] = system: patient derived xenograft of kidney cancer; test: Patient derived xenograft of kidney cancer, antibody versus cabozantinib (FIG. 20); format: in vivo; details: antibody 20 mg/kg twice per week versus cabo 10 mg/kg 5 times per week

## CCOC(=O)c1ccc(NC2CCCCC2)c(N)c1 [Ferrostatin-1]
[1]; chemerin-deficient 786-O cells, 1 μM Ferrostatin-1
  rescue of proliferation defect: rescued the proliferation defect

## Clc1cccc(CN=C2Nc3ccccc3NC23CCNCC3)c1 [Liproxstatin-1]
[1]; chemerin-deficient 786-O cells, 0.5 μM Liproxstatin-1
  rescue of proliferation defect: rescued the proliferation defect

## CCOC(=O)[C@@]1(CCCCCCOc2ccc(Cl)cc2)CO1 [etomoxir]
786-O and 769-P cells
  rescue of DNA synthesis (EdU): rescued the reduction in DNA synthesis
786-O and 769-P cells; listed as Etomoxir
  rescue of DNA synthesis (EdU): rescues tumorigenesis
[1]; chemerin-knockdown 786-O cells, 50 μM Etomoxir
  rescue of proliferation defect: rescued
[1]; chemerin-knockdown 786-O cells, 50 μM Etomoxir, listed as Etomoxir
  rescue of proliferation defect: rescues proliferation defect

## CCCCC/C=C\C/C=C\CCCCCCCC(=O)O [linoleic acid]
HIF2α mRNA in 786-O
  HIF2α mRNA: opposite pattern
[2]
  HIF2α protein: opposite pattern; also recorded: decreased
  chemerin protein: opposite pattern; also recorded: decreased

B1: recombinant chemerin protein: recombinant chemerin protein used to rescue chemerin-silenced cells (protein, UniProt Q99969 21-157, looked up)
Retinoic acid receptor …: ELTEAQRRGLQVALEEFHKHPPVQWAFQETSVESAVDTPFPAGIFVRLEFKLQQTSCRKRDWKKPECKVRPNGRKRKCLACIKLGSEDKVLGRLVHCPIETQVLREAEEHQETQCLRVQRAGEDPHSFYFPGQFAFS
786-O cells [3]
  rescue of lipid deposition (BODIPY 493/503): partially rescued; also recorded: rescued the lipid deposition defect

B2: chemerin mAb: monoclonal antibody against chemerin; heavy chain SEQ ID NO: 3, light chain SEQ ID NO: 4 (antibody, V domains shown)
VH: MEWNWVVLFLLSLTAGVYSQGQMQQSGAELVKPGASVKLSCKTSGFTFSSSYISWLKQKPRQSLEWIAWIYAGTGGTSYNQKFTGKAQLTVDTSSSTAYMQLSSLTSEDSAIYYCASFWDSWGQGTTLTVSS
VL: MRCLAEFLGLLVLWIPGAIGDIVMTQAAPSVPVTPGESVSISCRSSKSLLHSNGNTYLYWFLQRPGQSPQLLIYRMSNLASGVPDRFSGSGSGTAFTLRISRVEAEDVGVYYCMQHLEYPLTFGAGTKLELK
786-O cells [4]
  cell viability: dose-dependent reduction in cell viability
HK-2 cells
  cell viability: cell viability was not affected
786-O cells [5]
  lipid droplets (ORO staining quantification): decrease in lipid droplets
786-O cells [6]
  lipid ROS (BODIPY 581/591 C11): increase in lipid ROS
786-O orthotopic tumors
  in vivo 786-O tumor growth (bioluminescence imaging): significantly reduced
  animal weight / toxicity: did not result in significant changes in animal weight
786-O orthotopic tumors; listed as monoclonal antibody (mAb) targeting chemerin
  in vivo 786-O tumor growth (bioluminescence imaging): reduces ccRCC tumor burden
786-O orthotopic tumors; 20 mg/kg twice weekly versus IgG mAb, n=6 each group
  tumor weight upon sacrifice: lower tumor weights
786-O orthotopic tumors; listed as monoclonal antibody targeting chemerin
  animal weight / toxicity: no toxicity
[7]
  efficacy compared with cabozantinib: as effective as cabo
